The values that follow come from FireProtDB (doi:10.1021/bi0362267).

First the molecules themselves.
B1: Ribonuclease, P00648 (parent)
chain: MMKMEGIALKKRLSWISVCLLVLVSAAGMLFSTAAKTETSSHKAHTEAQVINTFDGVADYLQTYHKLPDNYITKSEAQALGWVASKGNLADVAPGKSIGGDIFSNREGKLPGKSGRTWREADINYTSGFRNSDRILYSSDWLIYKTTDHYQTFTKIR

The series covers variants of B1. The note with it: Bacillus amyloliquefaciens, pH 6.3, Thermal, CD, Mes 50 mM, structure 1BNI, whole UniProt chain shown; for ddG of mutation (higher = less stable) / unfolding free energy: 25 °C.

For the variant L142G, the “ddG of mutation (higher = less stable)” value came to 4.7 kcal/mol; the unfolding free energy was determined as 4.8 kcal/mol; the Tm was determined as 43.1 °C; the “change of melting temperature, mutant - wild type (higher = more stable)” value (shortened to “change of melting temperature, mutant”) is -9.1 °C. Besides, the “unfolding enthalpy (van 't Hoff)” value amounted to 98.5 kcal/mol.

As to D59G, the “ddG of mutation (higher = less stable)” value is 1.2 kcal/mol; the unfolding free energy was 8.3 kcal/mol; the Tm was 50 °C; the “change of melting temperature, mutant” value is -2.3 °C. Besides, the “unfolding enthalpy (van 't Hoff)” value turned out to be 129 kcal/mol.

Consider D59A, for which the “ddG of mutation (higher = less stable)” value is -1.1 kcal/mol; the unfolding free energy worked out at 10.6 kcal/mol; the Tm came out at 51.2 °C; the “change of melting temperature, mutant” value is -1 °C. The “unfolding enthalpy (van 't Hoff)” value worked out at 153 kcal/mol.

On to E120G, for which the Tm is 39.5 °C; the “change of melting temperature, mutant” value was -12.7 °C; the “unfolding enthalpy (van 't Hoff)” value turned out to be 101 kcal/mol.

For T147G, the “ddG of mutation (higher = less stable)” value was 2.8 kcal/mol and the unfolding free energy was 6.7 kcal/mol.

For Q62A, the “ddG of mutation (higher = less stable)” value was found to be 0.2 kcal/mol; the unfolding free energy is 9.3 kcal/mol; the Tm was 51.4 °C; the “change of melting temperature, mutant” value was -0.9 °C. For the same variant, the “unfolding enthalpy (van 't Hoff)” value is 137 kcal/mol.

For Q62G, the “ddG of mutation (higher = less stable)” value was 1.6 kcal/mol; the unfolding free energy is 7.9 kcal/mol; the Tm is 50.2 °C; the “change of melting temperature, mutant” value was -2 °C. Moreover, the “unfolding enthalpy (van 't Hoff)” value is 123 kcal/mol.

As for L136G, the “ddG of mutation (higher = less stable)” value amounted to 7 kcal/mol; the unfolding free energy worked out at 2.5 kcal/mol; the Tm is 43.5 °C; the “change of melting temperature, mutant” value is -8.7 °C. Further, the “unfolding enthalpy (van 't Hoff)” value is 58.5 kcal/mol.

As to R119G, the “ddG of mutation (higher = less stable)” value came out at 2.5 kcal/mol; the unfolding free energy is 7 kcal/mol; the melting temperature (Tm) is 46.5 °C; the “change of melting temperature, mutant” value is -5.7 °C. In addition, the “unfolding enthalpy (van 't Hoff)” value amounted to 123 kcal/mol.

With Y60G, the “ddG of mutation (higher = less stable)” value turned out to be 6.4 kcal/mol; the unfolding free energy amounted to 3.1 kcal/mol; the Tm is 36.6 °C; the “change of melting temperature, mutant” value was -15.6 °C. The “unfolding enthalpy (van 't Hoff)” value was found to be 92.7 kcal/mol.

With Y144G, the “ddG of mutation (higher = less stable)” value was found to be 6.6 kcal/mol; the unfolding free energy came out at 2.9 kcal/mol; the Tm amounted to 34.4 °C; the “change of melting temperature, mutant” value was -17.9 °C. Also, the “unfolding enthalpy (van 't Hoff)” value stood at 103 kcal/mol.

As for I102G, the “ddG of mutation (higher = less stable)” value was 3.1 kcal/mol and the unfolding free energy amounted to 6.4 kcal/mol.

I143G: the Tm turned out to be 36.5 °C; the “change of melting temperature, mutant” value is -15.7 °C; the “unfolding enthalpy (van 't Hoff)” value was determined as 110 kcal/mol.

With I135G, the “ddG of mutation (higher = less stable)” value is 7.4 kcal/mol; the unfolding free energy was found to be 2.1 kcal/mol; the Tm is 31.4 °C; the “change of melting temperature, mutant” value is -20.8 °C. For the same variant, the “unfolding enthalpy (van 't Hoff)” value is 100 kcal/mol.

With Y64G, the Tm turned out to be 42 °C; the “change of melting temperature, mutant” value was -10.3 °C; the “unfolding enthalpy (van 't Hoff)” value was determined as 117 kcal/mol.

By Tm is commonly meant the temperature at the midpoint of the melting transition.
